In patent US20170074883A1 one finds mean fluorescence intensity (after subtraction of isotype control) data, which are given here for 1 substance.

Assay [1] has as its target CD38 on the surface of the HCL cell line JOK-1 and its derivatives (JOK-Empty, JOK-RhoH, JOK-CD38-WT) (human) (UniProt P28907). In words: flow cytometry, FITC-IB6 on JOK-Empty cells (RhoH not induced), mean of 4 experiments.
Assay [2] has the same target. In words: flow cytometry, FITC-IB6 on JOK-RhoH cells (RhoH induced, lower CD38 expression), mean of 4 experiments. In general terms: In flow cytometry, cells or beads pass a laser one at a time.

Turning to “FITC-conjugated version of the monoclonal antibody IB6 directed against CD38 (Miltenyi Biotec)”, the mean fluorescence intensity (after subtraction of isotype control) in assay [1] amounted to 71.8; in assay [2], 19.7.
